Data taken from patent publication US20050158807A1.

Molecular target: Fas receptor on cultured mouse thyroid follicular cells (mouse) (UniProt P25446)
Assay: cell-based or functional assay

UniProt P25446, sequence (P25446 22-327): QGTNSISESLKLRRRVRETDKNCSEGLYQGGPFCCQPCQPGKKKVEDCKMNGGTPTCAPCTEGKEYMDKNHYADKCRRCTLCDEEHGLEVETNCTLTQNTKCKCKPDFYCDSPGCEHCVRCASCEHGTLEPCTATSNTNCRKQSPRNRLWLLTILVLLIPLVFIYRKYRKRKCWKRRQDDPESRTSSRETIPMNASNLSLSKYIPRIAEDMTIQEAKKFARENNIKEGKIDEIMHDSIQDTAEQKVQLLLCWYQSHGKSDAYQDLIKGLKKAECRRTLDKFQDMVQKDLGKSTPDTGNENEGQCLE

percentage of proliferation increase of anti-Fas versus control cultures ([3H] thymidine), 48 h: 37%
percentage of proliferation increase of anti-Fas versus control cultures ([3H] thymidine), 72 h: 49%
percentage of proliferation increase of anti-Fas versus control cultures ([3H] thymidine), 96 h: 61%
Substance: clone Jo2 anti-Fas antibody (Pharmingen)
